doi:10.1101/2024.12.09.627633 (bioRxiv, 2024)

Target: the molecule itself
Experiment: thioflavin T fluorescence of in vitro polymerisation; CAF domains 30 uM polymerised at 37 C with shaking at 200 rpm; ThT added at each time point; excitation 444 nm, emission 480 nm

B1: CAF domain (residues 148-223) of G175S human PMEL (domain or fragment, UniProt P40967 148-223, looked up)
chain: SFVYVWKTWGQYWQVLGGPVSGLSIGTSRAMLGTHTMEVTVYHRRGSRSYVPLAHSSSAFTITDQVPFSVSVSQLR
notes: PMEL, human, CAF (core amyloid-forming) domain, residues 148-223, with the G175S mutation linked to pigment dispersion syndrome; Polymerised in vitro in 150 mM sodium acetate pH 4.4 into two-protofilament fibrils; also called G175S CAF domain; G175S mutant; source: E. coli BL21 (DE3), pET24a, inclusion bodies, purified (Ni-NTA in 8M urea)
  fold final yield of polymerized amyloids against the wild type: ~4 fold
  fold rate of polymerisation against the wild type: ~4 fold
